Experimental data reported in patent publication US20110008383A1.

Legend:
[1] = molecular target: DR 13 molecules (UniProt P01903); test: peptide competition assay with DR 13 molecules
[2] = molecular target: CS protein on PfPb transgenic sporozoites (P. falciparum CS repeats in the context of the P. berghei CS protein); test: cell-based or functional assay

Row | Substance | IC50 [1] [nM] | inhibition in TSNA, about 25 µg antibody [2] [%]
1 | P. falciparum peptide (T* universal epitope of the CS protein) | 1800 | 
2 | MAB 2A10 (antibody) |  | 96
